Earlier results in article PMC13200438 (Journal of Nanobiotechnology, 2026).

Settings: oral semaglutide (Rybelsus)

semaglutide
oral (absolute) bioavailability: < 2%
